# Earlier results, collected in PMC7650819.
# Tests used:
# [1] = biological target: thrombin (human plasma) (Homo sapiens) (UniProt P00734+P00734); test: literature value; conditions: AIR; ABB: 50 mM Tris-HCl, 140 mM NaCl, 1 mM MgCl2, 1% BSA, 0.05% Triton X-100, pH 7.4, overnight at 4 °C; aptamers refolded in 5 mM Tris-HCl, 1 M NaCl, 0.5 mM …
# TGF-β1 (Homo sapiens) = TGF-β1 (Homo sapiens) (UniProt P01137); test: literature value; conditions: DNA with phosphorothioates at positions marked by asterisks: CGCTCGGCTTCACGAGATTCGTGTC*GTTGTGTC*C*TGTA*C*C*C*GC*C*TTGA*C*C*A*GTC*A*C*TC*TA*GA*GC*A*TC*C*GGA*C*TG …; AIR; ABB: 50 mM Tris-HCl, 140 mM NaCl, 1 mM MgCl2, 1% BSA, 0.05% Triton X-100, pH 7.4, overnight at 4 °C; aptamers refolded in 5 mM Tris-HCl, 1 M NaCl, 0.5 mM E
# Chain of TGF-β1 (Homo sapiens) (P01137 279-390): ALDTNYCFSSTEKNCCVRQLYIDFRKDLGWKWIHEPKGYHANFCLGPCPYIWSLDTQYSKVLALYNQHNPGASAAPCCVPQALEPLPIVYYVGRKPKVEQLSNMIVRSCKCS
Sequence,Kd [1] [µM],Kd (TGF-β1 (Homo sapiens)) [µM]
TTTTTTTTTTTTTTTTTTTTAGTCCGTGGTAGGGCAGGTTGGGGTGACT [Thrombin 29-mer aptamer],0.0005,
TTTTTTTTTTTTTTTTTTTTCGCTCGGCTTCACGAGATTCGTGTCGTTGTGTCCTGTACCCGCCTTGACCAGTCACTCTAGAGCATCCGGACTG [TGF-β1 thioaptamer],,0.09
TTTTTTTTTTTTTTTTTTTTGGTTGGTGTGGTTGG [Thrombin 15-mer aptamer],0.1,
